Data reported in patent US20130243722A1 (NEUMEDICINES, published 2013).

Target: human IL-12 receptor on human CD14- PBMC (human, UniProt Q99665 24-862)
Test: cell-based or functional assay

human IL-12 receptor on human CD14- PBMC, sequence (Q99665 24-862): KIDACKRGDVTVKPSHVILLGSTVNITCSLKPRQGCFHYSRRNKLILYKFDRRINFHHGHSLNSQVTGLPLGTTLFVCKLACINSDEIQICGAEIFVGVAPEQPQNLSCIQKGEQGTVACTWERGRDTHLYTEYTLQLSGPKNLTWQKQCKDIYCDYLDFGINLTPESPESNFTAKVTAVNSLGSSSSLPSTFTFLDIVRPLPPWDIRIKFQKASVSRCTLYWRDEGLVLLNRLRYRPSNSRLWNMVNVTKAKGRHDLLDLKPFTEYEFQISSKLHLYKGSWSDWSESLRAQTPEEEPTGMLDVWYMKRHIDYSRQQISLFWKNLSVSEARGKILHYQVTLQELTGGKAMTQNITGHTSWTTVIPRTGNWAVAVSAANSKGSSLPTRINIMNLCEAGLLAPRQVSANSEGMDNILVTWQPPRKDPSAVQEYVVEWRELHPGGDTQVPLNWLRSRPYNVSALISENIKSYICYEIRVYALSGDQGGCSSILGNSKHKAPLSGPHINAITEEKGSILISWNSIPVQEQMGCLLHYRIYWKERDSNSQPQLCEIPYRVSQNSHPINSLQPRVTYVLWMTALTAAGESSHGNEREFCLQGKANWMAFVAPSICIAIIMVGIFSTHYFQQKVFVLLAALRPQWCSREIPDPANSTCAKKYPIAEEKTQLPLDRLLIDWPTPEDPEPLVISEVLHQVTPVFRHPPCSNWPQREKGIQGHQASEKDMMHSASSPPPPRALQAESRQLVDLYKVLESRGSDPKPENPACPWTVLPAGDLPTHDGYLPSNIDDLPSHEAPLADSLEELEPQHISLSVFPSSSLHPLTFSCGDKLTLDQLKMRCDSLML

EC50 for stimulating IFN-γ secretion from CD14- PBMC (ELISA, 16 hours): 2.51 pM
B1: recombinant human IL-12 (ligand)
chain 1: RNLPVATPDPGMFPCLHHSQNLLRAVSNMLQKARQTLEFYPCTSEEIDHEDITKDKTSTVEACLPLELTKNESCLNSRETSFITNGSCLASRKTSFMMALCLSSIYEDLKMYQVEFKTMNAKLLMDPKRQIFLDQNMLAVIDELMQALNFNSETVPQKSSLEEPDFYKTKIKLCILLHAFRIRAVTIDRVMSYLNAS
chain 2: IWELKKDVYVVELDWYPDAPGEMVVLTCDTPEEDGITWTLDQSSEVLGSGKTLTIQVKEFGDAGQYTCHKGGEVLSHSLLLLHKKEDGIWSTDILKDQKEPKNKTFLRCEAKNYSGRFTCWWLTTISTDLTFSVKSSRGSSDPQGVTCGAATLSAERVRGDNKEYEYSVECQEDSACPAAEESLPIEVMVDAVHKLKYENYTSSFFIRDIIKPDPPKNLQLKPLKNSRQVEVSWEYPDTWSTPHSYFSLTFCVQVQGKSKREKKDRVFTDKTSATVICRKNASISVRAQDRYYSSSWSEWASVPCS
